Source: paper PMC9820559, “Investigation of the Fuzzy Complex between RSV Nucleoprotein and Phosphoprotein to Optimize an Inhibition Assay by Fluorescence Polarization” (International Journal of Molecular Sciences, 2022)
Square brackets hold non-standard residues; d marks the D form. Peptide text beside a SMILES is read from it. * marks the point of attachment. BODIPY(FL) = CC1=CC(C)=[N+]2C1=Cc1ccc(CCC(=O)*)n1[B-]2(F)F; FITC = O=C1OC2(c3ccc(O)cc3Oc3cc(O)ccc32)c2ccc(NC(=S)*)cc21; pS = N[C@@H](COP(=O)(O)O)C(=O)O

Tests used:
RSV N-RNA complex = biological target: T1, RSV N-RNA complex (Human respiratory syncytial virus A, UniProt P03418); assay: biochemical; type: binding; conditions: Kd, Fn peptides 200 nM, Tris pH 8.0 without salt; single site binding model
T1 construct: Full-length N was produced by co-expression with the C-terminal domain of RSV P protein in E. coli BL21(DE3); made in house; host or cells: E. coli BL21(DE3), co-transformed with pET-N and pGEX-P(161–241)
Experimental: We carried out FP measurements using the fluorescent F11 peptide and N-RNA complex. […] No salt was added to promote high affinity.
We first measured binding of Fn peptides (200 nM) to N-RNA in Tris buffer by FP (Figure 5A,B). […] We fitted the data with ΔFPmax and Kd as parameters.
We therefore measured fluorescein FP in the presence of N-RNA. […] To test if fluorescein binds to the P-binding site on the N-RNA, we carried out a competition experiment with M76 (Figure 6C).
We first performed FP measurements in salt-free Tris pH 8 buffer (Figure 8A). We measured binding curves using 200 nM of fluorescent peptides.
Fluorescence polarization measurements were carried out on a Paradigm Detection Platform (Beckman Coulter, Brea, CA, USA) operating with a microplate reader, a fluorescein detection cartridge (excitation range 485/20 nm, emission range 535/25 nm for both parallel and perpendicular components) and the SpectraMax Pro 6.1 software (Molecular Devices, San Jose, CA, USA). Samples were placed in polystyrene black flat bottom 96-well microplates (Cellstar, Greiner bio-one, Frickenhausen, Germany) with 20 µL final volume in each well. If not stated otherwise, the final concentration of fluorescent ligands was 200 nM. The buffer was either 20 mM MES pH 6.5, salt-free or with 250 mM NaCl, or 20 mM Tris pH 8.0 salt-free or with 100 mM NaCl, supplemented with 0.01% Brij-35. Mixing was done using the corresponding plate reader option. The temperature was set to 20 °C. Data were recorded in top reading mode. Measurements were done in triplicate and after an incubation time of 30 min, if not indicated otherwise. Fluorescence polarization (FP) in mFP units was determined from the parallel (I∥) and perpendicular (I⊥) components of the emitted light according to Equation (4). A grating factor G of 1.2 was determined using 1 nM fluorescein in 1 mM NaOH and assuming a theoretical FP of 27 mFP [48]. Background signal was measured from wells containing only buffer, and the mean value was subtracted from each I∥ and I⊥ component. (4) FP (mP)=1000×(I∥−G∗I⊥)/(I∥+G×I⊥)
We assumed that the measured fluorescence polarization FP is a linear combination of the FP of the fluorescent probe in the absence of N protein (FPmin) and the FP of N-bound fluorescent probe (FPmax), weighted by the molar fraction. The molar fraction x = [P]bound/[P]0 can then be expressed as a ratio of FP differences (Equation (8)). (8) x=(FP−FPmin)/(FPmax−FPmin)=∆FP/∆FPmax
To determine the Kd value of a complex between a fluorescent probe and N protein, a series of samples with constant probe concentration and varying N concentration was measured. FP binding curves were fitted with a single binding site model and a 1:1 stoichiometry.

[1] = Chemical stability of fluorescently labeled P peptides; type: physicochemical; conditions: slightly acidic conditions / HPLC purification and FP assay conditions
Experimental: We started by labeling the pP11 peptide with N-terminally attached BODIPY FL, as described by Shapiro at al.. […] We then produced F11, another labelled peptide P11, by changing the fluorescent label to fluorescein-5-thiourea (FTU) by coupling with fluorescein-5-isothiocyanate (FITC). […] To directly compare FP and NMR data, we made measurements in MES pH 6.5 buffer. Brij-35 detergent (0.01% w/v) was added below its critical micellar concentration (0.11% w/v) to prevent spurious binding of the peptide to the reading plates. […] We tested buffer with and without salt.
Such derivatives were recently described as tags for bioconjugation, but, to our knowledge, not for an FP assay. […] To assess the properties of BODIPY FL as a fluorescent label for P peptides, we produced a new series of eight dicyano BODIPY FL-labeled (BCNn) peptides of variable length (Table 4) and tested them for N-RNA binding.

[2] = biological target: T2, RSV N-RNA complex (full-length N protein in ring-shaped complexes with bacterial RNA) (human respiratory syncytial virus, UniProt P03418 1-391); assay: fluorescence polarisation; competition: unlabeled P_(10EE) varied against 200 nM BCN_(10EE) on 1 µM N-RNA; Tris pH 8 buffer; Hill equation; Ki from the IC50-to-Ki server; conditions: both partners purified
T2 construct: human RSV nucleoprotein N, full length; concentrations are of N protomer; also called N-RNA rings; source: in lysate for the co-purification; purified (glutathione-Sepharose, thrombin, Superdex 200) as N-RNA complex; copies: 10-11
T2 sequence (looked up): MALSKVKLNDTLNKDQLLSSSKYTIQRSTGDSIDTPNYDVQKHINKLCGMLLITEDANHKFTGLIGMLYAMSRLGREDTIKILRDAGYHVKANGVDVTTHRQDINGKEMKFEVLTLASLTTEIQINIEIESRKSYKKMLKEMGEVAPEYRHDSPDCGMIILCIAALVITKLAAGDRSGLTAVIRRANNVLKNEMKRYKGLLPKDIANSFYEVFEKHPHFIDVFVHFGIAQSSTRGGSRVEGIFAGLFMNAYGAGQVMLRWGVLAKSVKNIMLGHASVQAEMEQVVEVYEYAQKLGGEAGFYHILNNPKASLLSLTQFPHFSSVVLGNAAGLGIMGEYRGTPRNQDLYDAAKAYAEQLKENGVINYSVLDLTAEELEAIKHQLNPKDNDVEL

[3] = biological target: T2, RSV N-RNA complex (full-length N …); assay: fluorescence polarisation; competition: unlabeled P5E varied against 200 nM F5E on 10 µM N-RNA; Tris pH 8 without salt; Hill equation; Ki from the IC50-to-Ki server; conditions: both partners purified

CC(C)C[C@H](NC(=O)[C@H](CO)NC(=O)[C@H](CC(C)C)NC(=O)[C@H](CC(=O)O)NC(=O)[C@H](CC(N)=O)NC(=O)[C@H](CC(=O)O)NC(=O)[C@H](CO)NC(=O)[C@H](CC(=O)O)NC(=S)Nc1ccc2c(c1)C(=O)OC21c2ccc(O)cc2Oc2cc(O)ccc21)C(=O)N[C@@H](CCC(=O)O)C(=O)N[C@@H](CC(=O)O)C(=O)N[C@@H](Cc1ccccc1)C(=O)O [F11, ϕ-DS232DNDLS237LEDF-OH] ({FITC}-DSDNDLSLEDF-OH)
Kd (RSV N-RNA complex): 7.6 ± 0.9 µM
chemical stability [1]: stable

Cc1cc(C)n2c1C=C1C=CC(CCC(=O)N[C@@H](CC(=O)O)C(=O)N[C@@H](COP(=O)(O)O)C(=O)N[C@@H](CC(=O)O)C(=O)N[C@@H](CC(N)=O)C(=O)N[C@@H](CC(=O)O)C(=O)N[C@@H](CC(C)C)C(=O)N[C@@H](COP(=O)(O)O)C(=O)N[C@@H](CC(C)C)C(=O)N[C@@H](CCC(=O)O)C(=O)N[C@@H](CC(=O)O)C(=O)N[C@@H](Cc3ccccc3)C(=O)O)=[N+]1[B-]2(F)F [BF2pP11] ({BODIPY(FL)}-D[pS]DNDL[pS]LEDF-OH)
chemical stability [1]: prone to degradation

B1: P_(10EE) (unlabeled RSV P 10-mer, Ser232Glu/Ser237Glu) (peptide)
peptide: EDNDLELEDF
notes: unlabeled equivalent of BCN_(10EE), which was made from P_(10EE) on resin; C-terminal 10 residues of RSV phosphoprotein P; source: synthetic peptide
IC50 [2]: 21 ± 4 µM
Ki [2]: 2.9 µM

B2: P5E (unlabeled RSV P 5-mer, Ser237Glu) (peptide)
peptide: ELEDF
notes: unlabeled peptide from which F5E was made; C-terminal 5 residues of RSV phosphoprotein P; source: synthetic peptide (Fmoc/tBu solid phase, RP-HPLC purified)
IC50 [3]: 433 ± 21 µM
Ki [3]: 158 µM
